{"source": "paper PMC7367449", "key": {"[1]": {"target": "recombinant hCD134 with C-terminal human FcHis-tag replacing the transmembrane domain (hCD134-hFcHis) (human) (UniProt P43489)", "sequence (P43489 29-214)": "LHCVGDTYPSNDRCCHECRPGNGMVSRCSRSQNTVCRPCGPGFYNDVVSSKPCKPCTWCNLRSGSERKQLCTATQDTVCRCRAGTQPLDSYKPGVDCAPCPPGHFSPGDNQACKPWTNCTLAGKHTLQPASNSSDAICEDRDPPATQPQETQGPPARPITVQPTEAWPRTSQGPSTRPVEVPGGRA", "assay": "SPR; Biacore T200, CM5 chip; hCD134-hFcHis captured via immobilised Protein A; soluble tetramer injected; steady-state affinity analysis of the response units at equilibrium"}, "[2]": {"target": "recombinant hCD134 with C-terminal human FcHis-tag replacing the transmembrane domain (hCD134-hFcHis) (human) (UniProt P43489)", "assay": "SPR; Biacore T200, CM5 chip; hCD134-hFcHis captured via immobilised Protein A; soluble tetramer injected; multi-cycle kinetics, 1:1 binding fit"}, "[3]": {"target": "anti-gH Mab OHV-3 (murine)", "sequence (heavy, as listed by the source, chain 1 of 2)": "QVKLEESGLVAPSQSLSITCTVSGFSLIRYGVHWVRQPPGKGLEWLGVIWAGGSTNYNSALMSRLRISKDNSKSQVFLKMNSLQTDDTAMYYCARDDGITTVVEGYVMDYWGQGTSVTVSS", "sequence (light, as listed by the source, chain 2 of 2)": "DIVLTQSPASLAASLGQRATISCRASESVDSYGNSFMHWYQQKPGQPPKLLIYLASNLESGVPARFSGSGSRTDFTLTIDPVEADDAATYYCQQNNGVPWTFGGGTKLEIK", "assay": "SPR; Biacore T200, CM5 chip; Mab captured via immobilised Protein A/Protein L; soluble tetramer injected at 5, 10, 20, 40 and 80 nM; single-cycle kinetics"}}, "data": [{"substance": "soluble HHV-6B gH/gL/gQ1/gQ2 complex (HHV-6B tetramer)", "values": [{"measurement": "Kd", "setting": "[1]", "value": 18, "unit": "nM"}, {"measurement": "Kd", "setting": "[2]", "value": 14, "unit": "nM"}, {"measurement": "koff", "setting": "[2]", "value": 0.0158, "unit": "s⁻¹"}, {"measurement": "kon", "setting": "[2]", "value": "1.1e+06", "unit": "M⁻¹ s⁻¹"}, {"measurement": "Kd", "setting": "[3]", "value": 2.7, "unit": "nM"}, {"measurement": "koff", "setting": "[3]", "value": 0.00035, "unit": "s⁻¹"}, {"measurement": "kon", "setting": "[3]", "value": 130000, "unit": "M⁻¹ s⁻¹"}]}]}
